Test results: US20170037111A1, “Novel peptides and combination of peptides for use in immunotherapy against ovarian cancer and other cancers” (immatics biotechnologies GmbH, priority 2015, published 2017)

Molecular target: HLA-A*02:01 (Homo sapiens, UniProt P04439, D140Y/D185E/D98H/E176V/E277Q/G131W/G231S/I119V/I121R/I166T/I218V/L300P/L318F/N151K/N90K/P208A/P217A/Q86G/Q94H/R138H/R169H/T345S)
Test: MHC binding assay (UV-ligand exchange, β2m ELISA, peptide exchange yield)
Details: MHC class I binding score; binding to HLA-A*02:01 ranged by peptide exchange yield (UV-ligand exchange, β2m ELISA)
Excerpt: Candidate peptides for T cell based therapies according to the present invention were further tested for their MHC binding capacity (affinity). The individual peptide-MHC complexes were produced by UV-ligand exchange, where a UV-sensitive peptide is cleaved upon UV-irradiation, and exchanged with the peptide of interest as analyzed. Only peptide candidates that can effectively bind and stabilize the peptide-receptive MHC molecules prevent dissociation of the MHC complexes. To determine the yield of the exchange reaction, an ELISA was performed based on the detection of the light chain (β2m) of stabilized MHC complexes. The assay was performed as generally described in Rodenko et al. (Rodenko et al., 2006).
96 well MAXISorp plates (NUNC) were coated over night with 2 ug/ml streptavidin in PBS at room temperature, washed 4× and blocked for 1h at 37° C. in 2% BSA containing blocking buffer. […] Peptide-MHC monomers of the UV-exchange reaction were diluted 100 fold in blocking buffer. Samples were incubated for 1h at 37° C., washed four times, incubated with 2 ug/ml HRP conjugated anti-β2m for 1h at 37° C., washed again and detected with TMB solution that is stopped with […]. Absorption was measured at 450 nm. Candidate peptides that show a high exchange yield (preferably higher than 50%, most preferred higher than 75%) are generally preferred for a generation and production of antibodies or fragments thereof, and/or T cell receptors or fragments thereof, as they show sufficient avidity to the MHC molecules and prevent dissociation of the MHC complexes.

Peptide exchange	Substance
″++″ (≧20% = ++)	127 (KIGDEPPKV; listed as Homo sapiens) [compound 127]
″++++″ (≧75% = ++++)	568 (TLYDIAHTPGV; listed as Homo sapiens) [compound 568]
″++″ (≧20% = ++)	93 (LLQAIKLYL; listed as Homo sapiens) [compound 93]
″+++″ (≧50% = +++)	503 (SLNHFTHSV; listed as Homo sapiens) [compound 503]
″++″ (≧20% = ++)	374 (FLLQQHLISA; listed as Homo sapiens) [compound 374]
″+++″ (≧50% = +++)	610 (LLAPTPYIIGV; listed as Homo sapiens) [compound 610]
″+++″ (≧50% = +++)	75 (GLLEVMVNL; listed as Homo sapiens) [compound 75]
″++″ (≧20% = ++)	128 (YLFDDPLSAV; listed as Homo sapiens) [compound 128]
″+++″ (≧50% = +++)	350 (ALLDVTHSELTV; listed as Homo sapiens) [compound 350]
″+++″ (≧50% = +++)	521 (MLLTKLPTI; listed as Homo sapiens) [compound 521]
″+++″ (≧50% = +++)	308 (SQYSGQLHEV; listed as Homo sapiens) [compound 308]
″++++″ (≧75% = ++++)	100 (YLLSTNAQL; listed as Homo sapiens) [compound 100]
″+++″ (≧50% = +++)	328 (ALNDQVFEI; listed as Homo sapiens) [compound 328]
″++″ (≧20% = ++)	379 (IMEGTLTRV; listed as Homo sapiens) [compound 379]
″+++″ (≧50% = +++)	476 (ALMERTGYSMV; listed as Homo sapiens) [compound 476]
″++++″ (≧75% = ++++)	178 (ALTEIAFVV; listed as Homo sapiens) [compound 178]
″+++″ (≧50% = +++)	607 (RLYSGISGLEL; listed as Homo sapiens) [compound 607]
″+++″ (≧50% = +++)	394 (LLAVIGGLVYL; listed as Homo sapiens) [compound 394]
″++″ (≧20% = ++)	526 (RLAEVGQYEQV; listed as Homo sapiens) [compound 526]
″+++″ (≧50% = +++)	312 (IISDLTIAL; listed as Homo sapiens) [compound 312]
″+++″ (≧50% = +++)	441 (ALLENPKMEL; listed as Homo sapiens) [compound 441]
″++″ (≧20% = ++)	81 (FLFSQLQYL; listed as Homo sapiens) [compound 81]
″+++″ (≧50% = +++)	250 (ALSEEGLLVYL; listed as Homo sapiens) [compound 250]
″+++″ (≧50% = +++)	284 (ILLSQTTGV; listed as Homo sapiens) [compound 284]

Peptide exchange	Substance
″+++″ (≧50% = +++)	139 (SVMEVNSGIYRV; listed as Homo sapiens) [compound 139]
″++″ (≧20% = ++)	274 (SLLFSLFEA; listed as Homo sapiens) [compound 274]
″+++″ (≧50% = +++)	158 (KLFDVDEDGYI; listed as Homo sapiens) [compound 158]
″+++″ (≧50% = +++)	479 (SLFGNSGILENV; listed as Homo sapiens) [compound 479]
″+++″ (≧50% = +++)	324 (FLYDEIEAEV; listed as Homo sapiens) [compound 324]
″++″ (≧20% = ++)	412 (YLDDLNEGVYI; listed as Homo sapiens) [compound 412]
″+++″ (≧50% = +++)	72 (SLLELDGINL; listed as Homo sapiens) [compound 72]
″+++″ (≧50% = +++)	144 (YIMEPSIFNTL; listed as Homo sapiens) [compound 144]
″+++″ (≧50% = +++)	562 (YLEELPEKLKL; listed as Homo sapiens) [compound 562]
″+++″ (≧50% = +++)	546 (VMIAGKVAVV; listed as Homo sapiens) [compound 546]
″++++″ (≧75% = ++++)	305 (SIANFSEFYV; listed as Homo sapiens) [compound 305]
″++″ (≧20% = ++)	402 (VLFSGALLGL; listed as Homo sapiens) [compound 402]
″+++″ (≧50% = +++)	90 (TLLQIIETV; listed as Homo sapiens) [compound 90]
″+++″ (≧50% = +++)	369 (GLFPEHLIDV; listed as Homo sapiens) [compound 369]
″+++″ (≧50% = +++)	41 (SLMPHIPGL; listed as Homo sapiens) [compound 41]
″++++″ (≧75% = ++++)	438 (KLLPLAGLYL; listed as Homo sapiens) [compound 438]
″+++″ (≧50% = +++)	59 (IMEDIILTL; listed as Homo sapiens) [compound 59]
″+++″ (≧50% = +++)	244 (SLFGGTEITI; listed as Homo sapiens) [compound 244]
″++″ (≧20% = ++)	133 (KVLSNIHTV; listed as Homo sapiens) [compound 133]
″+++″ (≧50% = +++)	356 (KLLGKLPEL; listed as Homo sapiens) [compound 356]
″+++″ (≧50% = +++)	219 (KLSDIGITV; listed as Homo sapiens) [compound 219]
″++++″ (≧75% = ++++)	310 (FLVDTPLARA; listed as Homo sapiens) [compound 310]
″+++″ (≧50% = +++)	224 (TLIDAQWVL; listed as Homo sapiens) [compound 224]
″+++″ (≧50% = +++)	103 (TLAEEVVAL; listed as Homo sapiens) [compound 103]

Peptide exchange	Substance
″+++″ (≧50% = +++)	359 (YLLPESVDL; listed as Homo sapiens) [compound 359]
″++″ (≧20% = ++)	380 (TLIEDEIATI; listed as Homo sapiens) [compound 380]
″+++″ (≧50% = +++)	160 (FLFDEEIEQI; listed as Homo sapiens) [compound 160]
″++++″ (≧75% = ++++)	552 (GLLDLPFRVGV; listed as Homo sapiens) [compound 552]
″+++″ (≧50% = +++)	582 (TLCDVILMV; listed as Homo sapiens) [compound 582]
″+++″ (≧50% = +++)	39 (SVAPNLPAV; listed as Homo sapiens) [compound 39]
″++″ (≧20% = ++)	429 (GLVNDLARV; listed as Homo sapiens) [compound 429]
″+++″ (≧50% = +++)	584 (ALAEVAAMENV; listed as Homo sapiens) [compound 584]
″+++″ (≧50% = +++)	506 (KLLGKVETA; listed as Homo sapiens) [compound 506]
″+++″ (≧50% = +++)	539 (ALFDAQAQV; listed as Homo sapiens) [compound 539]
″++″ (≧20% = ++)	447 (QLVPALAKV; listed as Homo sapiens) [compound 447]
″+++″ (≧50% = +++)	28 (QLLDETSAITL; listed as Homo sapiens) [compound 28]
″+++″ (≧50% = +++)	528 (SVAEGRALMSV; listed as Homo sapiens) [compound 528]
″+++″ (≧50% = +++)	30 (LILDWVPYI; listed as Homo sapiens) [compound 30]
″++″ (≧20% = ++)	99 (ALVSKGLATV; listed as Homo sapiens) [compound 99]
″++″ (≧20% = ++)	31 (YLAPELFVNV; listed as Homo sapiens) [compound 31]
″++″ (≧20% = ++)	393 (GLLDTQTSQVLTA; listed as Homo sapiens) [compound 393]
″+++″ (≧50% = +++)	83 (ILAPTVMMI; listed as Homo sapiens) [compound 83]
″+++″ (≧50% = +++)	135 (ALSEVDFQL; listed as Homo sapiens) [compound 135]
″+++″ (≧50% = +++)	149 (NLLELFVQL; listed as Homo sapiens) [compound 149]
″++″ (≧20% = ++)	385 (SLLEQGLVEA; listed as Homo sapiens) [compound 385]
″+++″ (≧50% = +++)	623 (YLVEDIQHI; listed as Homo sapiens) [compound 623]
″++++″ (≧75% = ++++)	553 (SLLNQDLHWSL; listed as Homo sapiens) [compound 553]
